Measured values published in patent publication CN113754775A (SUNSHINE GUOJIAN PHARMACEUTICAL SHANGHAI CO LTD, dated 2021).

Molecular target: T1, PDL1-ECD-his (human, UniProt Q9NZQ7 19-238)
T1 construct: extracellular domain; Made in HEK-293F
Assay: ELISA, PDL1-ECD-his coated, anti-human IgG Fc-HRP

T1 sequence (Q9NZQ7 other isoform, or with tags, fused parts or gaps): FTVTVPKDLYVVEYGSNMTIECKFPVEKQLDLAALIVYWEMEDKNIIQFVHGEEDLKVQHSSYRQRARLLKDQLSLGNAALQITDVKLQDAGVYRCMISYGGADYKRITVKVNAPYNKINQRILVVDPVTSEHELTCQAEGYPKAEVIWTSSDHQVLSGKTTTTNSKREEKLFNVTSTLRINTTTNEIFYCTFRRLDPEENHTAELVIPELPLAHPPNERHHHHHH

- binding result: binds
B1: 抗人PD-L1抗体M8 (antibody, V domains shown)
VH: QVQLQQSGGGLVKPSQSLSLTCTVSGFSLTSYGVHWVRQPPGKGLEWIGLIWSGGGTDYNPSLKSRLTISRDTSKNQVSFKISSLTAADTAVYYCARQLGLRAMDYWGQGTSVTVSS
VL: EIVLTQSPDFLSVTPKEKVTITCRASQSIGTTIHWYQQKPDQSPKLLIKYASQSFSGVPSRFSGSGSGTDFTLTINSVEAEDAATYYCQQSNSWPLTFGAGTKLEIK
notes: Whole monoclonal antibody with two heavy and two light chains, made in HEK293F; also called anti-human PD-L1 antibody M8
